Data reported in patent US20150037829A1 (MIT, published 2015).

Molecular target: the molecule itself
Experiment: gel filtration chromatography, self-association
Protocol: APX, fluorescent protein, or miniSOG preparations were diluted to the desired concentrations using chilled (4° C.) PBS and then allowed to incubate at room temperature for 30 min to overnight. Samples ([…]) were run on a Waters HPLC system over a Superdex 75 10/300 column (GE Healthcare) that had been pre-equilibrated in PBS, pH 7.4. Samples were run isocratically in PBS at a flow rate of 0.5 mL/min. Elution of APX was monitored at 280 nm and 405 nm (heme absorbance). Empower software (Waters) was used for analysis of elution profiles. Apparent MWs were determined against low molecular weight standards (GE). […] This estimation was applied for all proteins in FIG. 4d except wt APX, which was predominantly dimeric at 0.25 μM. The apparent MW of the monomer for wt APX was assumed to be equal to the apparent MW of mAPX at 0.25 μM.

B1: wild-type pea cytosolic ascorbate peroxidase (APX), N-terminally His6-tagged (enzyme)
chain: RGKSYPTVSPDYQKAIEKAKRKLRGFIAEKKCAPLILRLAWHSAGTFDSKTKTGGPFGTIKHQAELAHGANNGLDIAVRLLEPIKEQFPIVSYADFYQLAGVVAVEITGGPEVPFHPGREDKPEPPPEGRLPDATKGSDHLRDVFGKAMGLSDQDIVALSGGHTIGAAHKERSGFEGPWTSNPLIFDNSYFTELLTGEKDGLLQLPSDKALLTDSVFRPLVEKYAADEDVFFADYAEAHLKLSELGFAEA
modifications: heme cofactor (non-covalent)
notes: the entries describe its self-association (homodimer) in gel filtration; also called wt APX; wtAPX; not shown: N-terminal His6-tag
binding result: binds
